One molecule from PMC5764468 (PLoS Biology, 2017) can be followed below.

This experiment addresses T1, Human calmodulin (CaM) (human, UniProt P0DP23 1-149).
T1 construct: also called full-length CaM
Nature of the experiment: SEC-SAXS. Conditions: both partners purified. On the technique in general: In gel filtration, larger molecules generally elute earlier.

B1: CaM-binding peptide (P_(MLCK)) from the smooth muscle myosin light-chain kinase (peptide)
peptide: Ac-RRKWQKTGHAVRAIGRLSS-NH2
notes: also called myosin light-chain kinase peptide; MLCK peptide
B1: the “stoichiometry N” value is 1 P_(MLCK) per CaM.
